From article PMC11754657

How the values were obtained:
[1] = target: rabbit skeletal muscle filamentous actin (rabbit) (UniProt P68135)
[2] = target: rabbit skeletal muscle filamentous actin (rabbit) (UniProt P68135); remark: listed apart in the source

“jordan (p.D1647G) MYO15A motor domain complex M15-2IQ:ELC:RLC (1:1:1) (from UniProt P60661 1-151)” was tested, and the velocity of actin filaments in the in vitro gliding filament assay (motor domain held by anti-GFP, 10 mM KCl, 2 mM ATP, 30 °C) [1] was 216 nm/s, the K ATPase: F-actin at half-maximal activation of the steady-state ATPase (NADH-coupled assay, 20 °C, 2 mM MgATP, 50 mM KCl) [2] was 114 µM and the kcat: extrapolated maximum rate of the F-actin activated steady-state ATPase (NADH-coupled assay, 20 °C) [2] was 0.87 s⁻¹.

“wild-type MYO15A motor domain complex M15-2IQ:ELC:RLC (1:1:1) (from UniProt P60661 1-151)” was tested, and the velocity of actin filaments in the in vitro gliding filament assay (motor domain held by anti-GFP, 10 mM KCl, 2 mM ATP, 30 °C) [1] was 473 nm/s, the K ATPase: F-actin at half-maximal activation of the steady-state ATPase (NADH-coupled assay, 20 °C, 2 mM MgATP, 50 mM KCl) [2] was 29.1 µM and the kcat: extrapolated maximum rate of the F-actin activated steady-state ATPase (NADH-coupled assay, 20 °C) [2] was 5.8 s⁻¹.
